Data published in patent US20220280633A1.

Test system: T1, fluorogenic substrate (R&D systems, cat no ES007), peptide YVADAPK between a 7-methoxycoumarin (Mca) group and a 2,4-dinitrophenyl (Dnp) group
T1 sequence: YVADAPK

## commercial ACE-2 from Sino Biological (cat no 10108H08H20)
  enzymatic activity assay using a fluorogenic substrate: All four samples appeared to have similar levels of activity
